Test results reported in patent publication US11110154.

Legend:
Experiment in all cases: cell_activity
[1] = test system: ZFP 33074-KOX (ZFP-TF repressor) (synthetic construct); conditions: lentiviral, CAG17/48 neurons; apoptosis ~50% to 20%; AAV in Q175 mice reduced mHtt aggregates (P<0.001); indirect evidence of binding; scale: % increase of intracellular ATP in HD neurons
[2] = test system: ZFP 30640 (ZFP-TF repressor) (synthetic construct); conditions: AAV, Q175 mouse striatum (~179 CAG), injected at 2 months; indirect evidence of binding
[3] = test system: ZFP 30645 (ZFP-TF repressor) (synthetic construct); conditions: AAV, Q175 mouse striatum (~179 CAG), injected at 2 months; indirect evidence of binding

AGCAGCAGCAGCAGCAGCAGCAGCAGCA (double strand) [Htt CAG repeat, 33074 target]
activity [1]: 60

CAGCAGCAGCAGCAGCAGCAGCAGCAGC (double strand) [Htt CAG repeat, 30640 target]
activity (% reduction of nuclear Htt aggregates) [2]: > 90

CAGCAGCAGCAGCAGCAGCAGCAGCAGC (double strand) [Htt CAG repeat, 30645 target]
activity (% reduction of nuclear Htt aggregates) [3]: > 90
